Measurements published in patent US20180155451A1 (published 2018).

T1: FcγRIIb extracellular domain with C-terminal His tag (human, UniProt P31994 43-217)
T1 construct: extracellular domain; also called FcgRIIb; 2b; not shown: His tag at the C terminus
T1 sequence (looked up): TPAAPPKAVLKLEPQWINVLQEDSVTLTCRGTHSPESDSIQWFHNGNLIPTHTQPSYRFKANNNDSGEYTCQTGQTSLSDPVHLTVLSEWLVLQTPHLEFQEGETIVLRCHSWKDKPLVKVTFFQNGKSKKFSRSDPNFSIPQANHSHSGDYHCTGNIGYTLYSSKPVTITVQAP

T2: FcγRIIa H (human, UniProt P12318 34-217)
T2 construct: extracellular domain; Soluble His-tagged extracellular domain expressed in FreeStyle293 cells; also called FcγRIIa type H; FcgRIIa H; not shown: His tag attached to the C terminus
T2 sequence (looked up): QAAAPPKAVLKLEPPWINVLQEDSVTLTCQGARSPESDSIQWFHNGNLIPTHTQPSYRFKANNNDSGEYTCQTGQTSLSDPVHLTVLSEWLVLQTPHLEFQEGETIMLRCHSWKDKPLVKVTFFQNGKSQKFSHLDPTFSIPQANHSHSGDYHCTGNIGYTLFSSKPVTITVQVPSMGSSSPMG

T3: FcγRIIb (human, UniProt P31994 43-217)
T3 construct: extracellular domain; Soluble His-tagged extracellular domain expressed in FreeStyle293 cells; also called FcgRIIb; 2b; not shown: His tag attached to the C terminus
T3 sequence (looked up): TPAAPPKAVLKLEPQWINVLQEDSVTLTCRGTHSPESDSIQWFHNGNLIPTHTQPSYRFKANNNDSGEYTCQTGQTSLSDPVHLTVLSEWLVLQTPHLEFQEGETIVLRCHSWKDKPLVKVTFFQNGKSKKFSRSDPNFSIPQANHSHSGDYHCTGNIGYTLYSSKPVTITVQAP


Columns and labels:
[1] = biological target: T1, FcγRIIb extracellular domain with …; test: SPR (Biacore), antibody captured via antigen peptide, FcγR as analyte; binding relative to GpH7-A5/GpH7-B3/GpL16-k0 = 100
[2] = biological target: T4, FcγRIIIa extracellular domain with C-terminal His tag (human, UniProt P08637 17-208); test: as above
T4 construct: extracellular domain; also called FcgRIIIa; 3a; not shown: His tag at the C terminus

FcγRIIa H [3] = biological target: T2, FcγRIIa H; test: SPR (Biacore); He/Con_2aH divided by He/Con_2b (FcγRIIb) of the same antibody
FcγRIIa H [4] = biological target: T2, FcγRIIa H; test: SPR (Biacore), captured antibody, FcγR analyte; relative to GpH7-A5/GpH7-B3/GpL16-k0 = 100
FcγRIIb = biological target: T3, FcγRIIb; test: as above

T4 sequence (P08637 17-208): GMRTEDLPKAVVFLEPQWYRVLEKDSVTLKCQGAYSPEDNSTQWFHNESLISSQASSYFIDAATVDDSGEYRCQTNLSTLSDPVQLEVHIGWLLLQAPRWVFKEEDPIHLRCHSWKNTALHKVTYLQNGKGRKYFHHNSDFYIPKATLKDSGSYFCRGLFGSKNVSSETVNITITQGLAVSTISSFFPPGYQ

| Binder | He/Con_2b [1] | He/Con_3a [2] | He_2aH/2b (FcγRIIa H [3]) | He/Con_2aH (FcγRIIa H [4]) | He/Con_2b (FcγRIIb) |
| --- | --- | --- | --- | --- | --- |
| GpH7-A5/GpH7-B3 variant I336_14T/GpL16-k0 (antibody, human IgG1, kappa, He Ab: the mutation stands only in the GpH7-B3-derived H chain; also called He Ab I336T) heavy 1: not shown heavy 2: not shown light: DIVMTQSPLSLPVTPGEPASISCQASESLVHSNRNTYLHWYLQKPGQSPQLLIYKVSNRFSGVPDRFSGSGSGTDFTLKISRVEAEDVGVYYCSQNTHVPPTFGQGTKVEIERTVAAPSVFIFPPSDEQLKSGTASVVCLLNNFYPREAKVQWKVDNALQSGNSQESVTEQDSKDSTYSLSSTLTLSKADYEKHKVYACEVTHQGLSSPVTKSFNRGEC | 89.5 relative (control = 100) | 108 relative (control = 100) |  |  |  |
| GpH7-A5/GpH7-B3 variant I336_18N/GpL16-k0 (antibody, human IgG1, kappa, He Ab: the mutation stands only in the GpH7-B3-derived H chain; also called He Ab I336N) heavy 1: not shown heavy 2: not shown light: DIVMTQSPLSLPVTPGEPASISCQASESLVHSNRNTYLHWYLQKPGQSPQLLIYKVSNRFSGVPDRFSGSGSGTDFTLKISRVEAEDVGVYYCSQNTHVPPTFGQGTKVEIERTVAAPSVFIFPPSDEQLKSGTASVVCLLNNFYPREAKVQWKVDNALQSGNSQESVTEQDSKDSTYSLSSTLTLSKADYEKHKVYACEVTHQGLSSPVTKSFNRGEC | 97.6 relative (control = 100) | 104 relative (control = 100) |  |  |  |
| GpH7-A5/GpH7-B3 variant K334_01G/GpL16-k0 (antibody, human IgG1, kappa, He Ab: the mutation stands only in the GpH7-B3-derived H chain; also called He Ab K334G) heavy 1: not shown heavy 2: not shown light: DIVMTQSPLSLPVTPGEPASISCQASESLVHSNRNTYLHWYLQKPGQSPQLLIYKVSNRFSGVPDRFSGSGSGTDFTLKISRVEAEDVGVYYCSQNTHVPPTFGQGTKVEIERTVAAPSVFIFPPSDEQLKSGTASVVCLLNNFYPREAKVQWKVDNALQSGNSQESVTEQDSKDSTYSLSSTLTLSKADYEKHKVYACEVTHQGLSSPVTKSFNRGEC | 92.5 relative (control = 100) | 121 relative (control = 100) |  |  |  |
| GpH7-A5/GpH7-B3 variant K334_09D/GpL16-k0 (antibody, human IgG1, kappa, He Ab: the mutation stands only in the GpH7-B3-derived H chain; also called He Ab K334D) heavy 1: not shown heavy 2: not shown light: DIVMTQSPLSLPVTPGEPASISCQASESLVHSNRNTYLHWYLQKPGQSPQLLIYKVSNRFSGVPDRFSGSGSGTDFTLKISRVEAEDVGVYYCSQNTHVPPTFGQGTKVEIERTVAAPSVFIFPPSDEQLKSGTASVVCLLNNFYPREAKVQWKVDNALQSGNSQESVTEQDSKDSTYSLSSTLTLSKADYEKHKVYACEVTHQGLSSPVTKSFNRGEC | 94.8 relative (control = 100) | 160 relative (control = 100) |  |  |  |
| GpH7-A5/GpH7-B3 variant S337_01G/GpL16-k0 (antibody, human IgG1, kappa, He Ab: the mutation stands only in the GpH7-B3-derived H chain; also called He Ab S337G) heavy 1: not shown heavy 2: not shown light: DIVMTQSPLSLPVTPGEPASISCQASESLVHSNRNTYLHWYLQKPGQSPQLLIYKVSNRFSGVPDRFSGSGSGTDFTLKISRVEAEDVGVYYCSQNTHVPPTFGQGTKVEIERTVAAPSVFIFPPSDEQLKSGTASVVCLLNNFYPREAKVQWKVDNALQSGNSQESVTEQDSKDSTYSLSSTLTLSKADYEKHKVYACEVTHQGLSSPVTKSFNRGEC | 92 relative (control = 100) | 102 relative (control = 100) |  |  |  |
| GpH7-A5/GpH7-B3 variant S337_04F/GpL16-k0 (antibody, human IgG1, kappa, He Ab: the mutation stands only in the GpH7-B3-derived H chain; also called He Ab S337F) heavy 1: not shown heavy 2: not shown light: DIVMTQSPLSLPVTPGEPASISCQASESLVHSNRNTYLHWYLQKPGQSPQLLIYKVSNRFSGVPDRFSGSGSGTDFTLKISRVEAEDVGVYYCSQNTHVPPTFGQGTKVEIERTVAAPSVFIFPPSDEQLKSGTASVVCLLNNFYPREAKVQWKVDNALQSGNSQESVTEQDSKDSTYSLSSTLTLSKADYEKHKVYACEVTHQGLSSPVTKSFNRGEC | 97.8 relative (control = 100) | 101 relative (control = 100) |  |  |  |
| GpH7-A5/GpH7-B3 variant T335_05P/GpL16-k0 (antibody, human IgG1, kappa, He Ab: the mutation stands only in the GpH7-B3-derived H chain; also called He Ab T335P) heavy 1: not shown heavy 2: not shown light: DIVMTQSPLSLPVTPGEPASISCQASESLVHSNRNTYLHWYLQKPGQSPQLLIYKVSNRFSGVPDRFSGSGSGTDFTLKISRVEAEDVGVYYCSQNTHVPPTFGQGTKVEIERTVAAPSVFIFPPSDEQLKSGTASVVCLLNNFYPREAKVQWKVDNALQSGNSQESVTEQDSKDSTYSLSSTLTLSKADYEKHKVYACEVTHQGLSSPVTKSFNRGEC | 99.9 relative (control = 100) | 105 relative (control = 100) |  |  |  |
| GpH7-A5/GpH7-B3 variant T335_06M/GpL16-k0 (antibody, human IgG1, kappa, He Ab: the mutation stands only in the GpH7-B3-derived H chain; also called He Ab T335M) heavy 1: not shown heavy 2: not shown light: DIVMTQSPLSLPVTPGEPASISCQASESLVHSNRNTYLHWYLQKPGQSPQLLIYKVSNRFSGVPDRFSGSGSGTDFTLKISRVEAEDVGVYYCSQNTHVPPTFGQGTKVEIERTVAAPSVFIFPPSDEQLKSGTASVVCLLNNFYPREAKVQWKVDNALQSGNSQESVTEQDSKDSTYSLSSTLTLSKADYEKHKVYACEVTHQGLSSPVTKSFNRGEC | 99.4 relative (control = 100) | 102 relative (control = 100) |  |  |  |
| GpH7-A5/GpH7-B3 variant S324_05P/GpL16-k0 (antibody, human IgG1, kappa, Heterodimerized anti-glypican-3 IgG1; mutation in the GpH7-B3 H chain only; also called He Ab) heavy 1: not shown heavy 2: not shown light: DIVMTQSPLSLPVTPGEPASISCQASESLVHSNRNTYLHWYLQKPGQSPQLLIYKVSNRFSGVPDRFSGSGSGTDFTLKISRVEAEDVGVYYCSQNTHVPPTFGQGTKVEIERTVAAPSVFIFPPSDEQLKSGTASVVCLLNNFYPREAKVQWKVDNALQSGNSQESVTEQDSKDSTYSLSSTLTLSKADYEKHKVYACEVTHQGLSSPVTKSFNRGEC |  |  | 0.59 ratio | 55.5 relative (control = 100) | 94.7 relative (control = 100) |
